Reference: a protein production outcome set (Wang et al. 2014)

assay: label from the status in PepcDB records

Sequence | protein production
MAEAPPVSGTFKFNTDAAEFIPQERKTSGLNCGTQRRLDSSRIGRRNYSSSPPCHLPRHIPYEDISAVHQHSYASGSKPKSPQGFFQSSNKSLKNHGLQNQPWQKARNEKHQNRNKKAQGLSEQTSDTSSLESVARSESGTNPREHSPSESEKEVVIADPRGAKPKKAAQLTYNYGRGPKAKGRLRSEWGNRMSPKSEDENTRPVAISHTDSSDASCRKPVVDPCVCRRNEQRRYPQKRPPWEVEGARPRPGRNPPKQESQRHINAGPKTNMSPIPKDNLRERPTKSACDTGNLAVVSKSSRRVNQEKTAVRRQDPQVLSPFPRGKQNHMLKNVETHTGSLIEQLTTEKYECMVCCELVQVTAPVWSCQSCFHVFHLNCIKKWARSPASHADGQSGWRCPACQNVSAHVPNTYTCFCGKVKNPEWSRNEIPHSCGEVCRKKQPGQDCPHSCNLLCHPGPCPPCPAFTTKTCECGRTRHTVRCGQPVSVHCSNACENILNCGQHHCAELCHGGQCQPCRIILNQVCYCGSTSRDVLCGTDVGKSDGFGDFSCLKICGKDLKCGSHTCSQVCHPQPCQPCPRLPHLVRYCPCGQTPLSQLLEHGSNARKTCMDPVPSCGKVCGKPLACGSSDFIHTCEKLCHEGDCGPCSRTSVISCRCSFRTKELPCTSLKSEDATFMCDKRCNKKRLCGRHKCNEICCVDKEHKCPLICGRKLRCGLHRCEEPCHRGNCQTCWQASFDELTCHCGASVIYPPVPCGTRPPECTQTCARIHECDHPVYHSCHSEEKCPPCTFLTQKWCMGKHEELTIKKLWTFKETLDF | not failed
MAEEKIKKSLLAADDSDDEYSRGDTVSDQTELSSILDKLSLEPKTEKKKLLVLSLSGLLLHRVHKKELRKKPKNRSPDASCGPNLVYKRPFAEEFMKFCLERFEVGIWSSACELVSSLNILIVTGPRECTDSGYKTLENRYKPLFFKDLSKVFKCFKGFSASNTIFIDDEPYKALRNPDNTGLFPMSYDASNIKDNLLDPEGELCSYLEGLAKSSDVQAYIKVHSFGRPMIDSSHPDWSFYSNVSKIVS | failed
MAEEKKKKLSIIVFSGTIDKLMPVGILTSGAAASGYEVNLFFTFWGLQAITKRSLNSQQPPQIDKNYEQMGPIMMQKMQEMKYPMWHQLVQQAKEIGEVKVFACSTTMEFFGIKREDLAEFVDDVVGVATFLDRAEGGTTLFI | not failed
MAEEQQPSTDDETAAKSATTKQASPKAETDQSATQPVEDQPTATPEEVAALEKKAADFEDKYLRAEAEVQNMQARFQKEQATLIKYDGQQLAKDVLPVIDNLERALAVEASDDVAAQIKKGVQMTYDHLEDALKRNHVTEIAALGQTFDPTLHQAVQSVPAEDGQTAETVVNVLQKGYQLKDRVLRPAMVVVAQ | failed
MAEGKPDEQLFQLLSGLLQQVESLTNTEEVELRSKIEALGLEVTKVPSKSAQHLNEVEIAKELDKLSAKLDDVDEMISSAIASDPQVQTLLSGTADVWMPVITAGAEERLNFTASLADDDDLSNKETTTDNTSSS | not failed
MAEGSSLALPRVSASLHEPARAFSFRLDEGKSPWVEVVITIGSFPRCPEVTMMWPPPPTFSVFLLLLLSQVPSSRPQSPGTKKLRLVGPANRPEEGRLEVLHQGQWGTVCDDDFALQEATVACRQLGFESALTWAHSAKFGQGEGPIWLDNVRCLGTEDTLDQCGSNGWGVSDCRHSEDVGVVCHPRRQQGYHSEKVSNALGPQGRRLEEVRLKPILASAKRHSPVTEGAVEVRYEGHWRQVCDQGWTMNNSRVVCGMLGFPSQAPVNSHYYRKVWNLKMKDPKSRLNGLTKKNSFWIHRVDCLGTEPHLAKCQVQVAPGRGKLRPACPGGMHAVVNCVAGPHFQRQKPKPKRKESGAEELKVRLRSGAQVGEGRVEVLMNRQWGTVCDHRWNLISASVVCRQLGFGSAREALFGAQLGQGLGPIHLSEVRCRGYEQTIGDCLALEGSQNGCQHANDAAVRCNIPDMGFQNKVRLAGGRNSEEGVVEVQVEVNGVPRWGTVCSDHWGLTEAMVTCRQLGLGFANFAIKDTWYWQGTPEAKEVVMSGVRCSGTEMALQQCQRHGPVHCSHGSGRFSAGVACMNSAPDLVMNAQLVQETAYLEDRPLSMLYCAHEENCLSKSADHMDWPYGHRRLLRFSSQIYNLGRADFRPKAGRHSWIWHQCHRHYHSIEVFTHYDLLTLNGSKVAEGHKASFCLEDTNCPSGVQRRYACANFGEQGVAVGCWDTYRHDIDCQWVDITDVSPGDYIFQVVVNPTNDVAESDFSNNMIRCRCKYDGQRVWLHNCHTGDPYRPNAELSLEQEQRLRNNLI | failed
